T1: extracellular domain of monkey Siglec-15 on monkey S15ECD-293T cells (monkey)
T1 chain: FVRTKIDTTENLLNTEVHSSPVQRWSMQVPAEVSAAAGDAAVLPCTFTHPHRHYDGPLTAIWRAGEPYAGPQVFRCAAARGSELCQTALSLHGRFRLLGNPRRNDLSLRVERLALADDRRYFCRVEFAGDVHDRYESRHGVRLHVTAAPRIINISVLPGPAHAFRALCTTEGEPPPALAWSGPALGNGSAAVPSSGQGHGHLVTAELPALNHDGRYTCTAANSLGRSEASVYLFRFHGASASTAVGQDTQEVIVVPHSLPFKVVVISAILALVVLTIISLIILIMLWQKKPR

T2: human Siglec-15 (Acro, Cat. No. SG5-H52H3) (human, UniProt Q6ZMC9 20-263)
T2 construct: Bought reagent used as the analyte in the Octet assay; also called antigen
T2 sequence (looked up): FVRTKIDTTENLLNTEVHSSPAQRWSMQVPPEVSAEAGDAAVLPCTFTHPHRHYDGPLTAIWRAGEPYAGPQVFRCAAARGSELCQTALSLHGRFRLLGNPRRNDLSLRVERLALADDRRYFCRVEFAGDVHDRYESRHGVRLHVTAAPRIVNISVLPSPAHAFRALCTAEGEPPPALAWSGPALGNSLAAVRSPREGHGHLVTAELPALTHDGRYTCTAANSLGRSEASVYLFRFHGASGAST


Assays:
[1] = target: T3, full length murine Siglec-15 on murine S15-CT26 cells (murine); test: flow cytometry on murine S15-CT26 cells, Alexa 488 secondary antibody
T3 construct: whole, on cells; also called murine Siglec-15 on the surface of a cell

[2] = target: T1, extracellular domain of monkey …; test: flow cytometry on monkey S15ECD-293T cells, Alexa 488 secondary antibody
[3] = target: T2, human Siglec-15 (Acro, Cat. No. …); test: BLI (Octet RED96e), antibody captured on AHC sensor, 30 nM antigen, 1:1 fit; third assay
Description: (§1) Affinity of Siglec-15 binding protein of the present application to human Siglec-15 (Acro, Cat. No.: SG5-H52H3) was determined using Octet RED96e (Fortebio), both of the antigen and the Siglec-15 binding protein of the present application were diluted with 1×PBST (1×PBS: Sangon, B548117-0500; 0.02% Tween 20: Sigma-aldrich, P1379). The antigen is used at a concentration of 30 nM and the Siglec-15 binding protein of the present application is used at a concentration of 33.3 nM.
(§2) First, a sample was added to a 96-well plate (Greiner bio-one, 655209) in a system of 200 μL/well. Software parameters were then set, the plate temperature was set to 30° C., and the frequency at which the standard kinetic signal was collected was 5.0 Hz. Next, the AHC sensor (Fortébio, Cat. No.: 18-0015) was pre-wetted with 1×PBST for 10 min, then the sample was loaded on the machine for detection, with each cycle containing the following steps: 1) immersing the sample in buffer for 60 s; 2) detecting whether the antigen has non-specific binding to the sensor; 3) regenerating in a 10 mM glycine solution at pH 1.7; 4) immersing in buffer for 60 s; 5) immobilizing the Siglec-15 binding protein of the present application on the sensor for 20 s; 6) immersing the sensor in buffer for 180 s; 7) binding the antigen to the Siglec-15 binding protein of the present application for 180 s; 8) dissociating the antigen with Siglec-15 binding protein of the present application for 10 min; and 9) regenerating the sensor.
(§3) The equilibrium dissociation constant (KD) of the Siglec-15 binding protein of the present application was calculated by determining the binding rate constant (kon) and dissociation rate constant (kdis) of the antigen-Siglec-15 binding protein of the present application in a 1:1 binding manner using Data Analysis 12.0 software fromx Fortebio.

[4] = target: T2, human Siglec-15 (Acro, Cat. No. …); test: BLI (Octet RED96e), antibody captured on AHC sensor, 30 nM antigen, 1:1 fit; second assay; set-up: Response value: unit not given here
Description: as §1, §2, §3

[5] = target: T4, extracellular domain of human Siglec-15 with PDGFR transmembrane domain on human S15ECD-293T cells (human, UniProt Q6ZMC9 20-263; P09619 513-561); test: flow cytometry on human S15ECD-293T cells, Alexa 488 secondary antibody; Ab9 on human S15ECD-293T cells
T4 construct: range 20-263;range 513-561; also called human Siglec-15 on the surface of a cell
Description: (§4) The purified Siglec-15 binding protein of the present application was identified by flow cytometry for its function to bind to human S15ECD-293T cells of the present application. Human S15ECD-293T cells prepared by the methods of the present application can be expanded to 90% confluence in 15 cm cell culture dishes, media were pipetted completely, the cells were washed once with PBS buffer (Thermo Fisher, 10010049), then treated with enzyme-free cell dissociation buffer (Versene solution, Thermo Fisher, 15040066) and harvested. The cells were washed twice with PBS buffer and counted, the desired quantity of cells was removed for centrifugation, the cells were resuspended to 2×10^6 cells/ml with FACS buffer (PBS with 2% FBS). After incubation at room temperature for 15 min, the cell suspension was added to a U-shaped 96-well plate (Corning, 3798) at 50 μL/well. The Siglec-15 binding proteins of the present application were serially diluted in FACS buffer, the dilution was added to the above 96-well plate at 50 μL/well and incubated at 4° C. for 1 h. […] The cells were resuspended in 30 μL/well FACS buffer, and detected and analyzed by flow cytometry intellycite plus (Sartorius). […]

[6] = target: T4, extracellular domain of human Siglec-15 …; test: flow cytometry on human S15ECD-293T cells, Alexa 488 secondary antibody; Ab15 on human S15ECD-293T cells
Description: as §4

Row | EC50 [1] [nM] | EC50 [2] [nM] | Kd [3] [nM] | koff [3] [s⁻¹] | kon [3] [M⁻¹ s⁻¹] | Kd [4] [nM] | Response value [4] | koff [4] [s⁻¹] | kon [4] [M⁻¹ s⁻¹] | EC50 [5] [nM] | EC50 [6] [nM] | Binder
1 | 3.25 | 0.922 | 0.0691 | 3.59e-05 | 519000 | 0.0873 | 0.259 | 3.88e-05 | 445000 | 1.52 |  | Ab9, purified Siglec-15 binding protein in the form of IgG1 (antibody, V domains shown, Expressed in ExpiCHO cells in the form of IgG1) VH: EVQLLESGGGLVQPGGSLRLSCAASGFTFSSYAMSWVRQAPGKGLEWVSTISGGGGSTYYADSVKGRFTISRDNSKNTLYLQMNSLRAEDTAVYYCAKAIGSSWYSDAFDLWGQGTMVTVSS VL: DIQMTQSPSSVSASVGDRVTITCRASQDISDWLAWYQQKPGKAPKLLIYVASSLQSGVPSRFSGSGSGTDFTLTISSLQPEDFATYYCQQSYSIPYTFGQGTKLEIKR
2 | 1.83 | 0.475 | 0.0916 | 4.35e-05 | 475000 | 0.073 | 0.361 | 3.93e-05 | 538000 |  | 0.475 | Ab15, purified Siglec-15 binding protein in the form of IgG1 (antibody, V domains shown, Expressed in ExpiCHO cells in the form of IgG1) VH: EVQLLESGGGLVQPGGSLRLSCAASGFTFSSYAMSWVRQAPGKGLEWVSTITGGGESTYYADSVKGRFTISRDNSKNTLYLQMNSLRAEDTAVYYCAKAIGSSWYSDAFDLWGQGTMVTVSS VL: DIQMTQSPSSVSASVGDRVTITCRASQDISSWLAWYQQKPGKAPKLLIYVASYIHSGVPSRFSGSGSGTDFTLTISSLQPEDFATYYCQQSYSIPYTFGQGTKLEIKR

Reference: patent publication US20240124576A1 (SHANGHAI JEMINCARE PHARMACEUTICAL, published 2024)
